Measurements published in the DeepSol protein solubility set.

Assay: soluble on expression in E. coli; label from the status in PepcDB or PDB records

Sequence | soluble on expression in E. coli
MGSDKIHHHHHHMNLRRLKYFIKIVDVGSLTQAADILHIAQPALSQQLATLEGEVNQKLLIRTKRGVTPTNAGKILYSHAQAILRQCAQAQSAIDRAGGELSGSVSVGLAPGTAAQQLALPLMAEVQRQYPGIVLYFNENFGTTLSELIMNGRMDMAVIYDNRNIHGLRFIPLMKEPLCFVCPNSLMKPKKEITLAEVAQHNLFLPRIYNIMRKIVDEAFIKEGLTYQVKCEIESQTTLNAVLAAGMGCTIMPDSAARSMLNASNAWMAKIIDPDIYASLSFCMSDHLSLSEPAEVVKNILLSLMADRTPDNRPLTLVS | not soluble
MKITSYVSFLYCLCLMLASPTVQASEVRTAIFEGKPCINPPHVVGNYPATPFLFYIPTSGERPIKWHAENLPKGLKLDKETGIIKGKVVEKGTYKVMLKAENALGTDTQELLINIGDELLLTPPMGWNSWNTFGRHLTEELLLQTADAMVENGMRDLGYAFINIDDFWQLPERGADGHIQIDKTKFPRGIKYVADYLHERGFKLGIYSDAADKTCGGVCGSYGYEEIDARDFASWGVDLLKYDYCNAPAGRVEAMERYEKMGRALRATDRSIVFSICEWGQREPWKWAKKVGGHLWRVSGDIGDLWNRSTDEKGGLRGILNILEINAPLSEYARPGGWNDPDMLVVGIGGKSKSIGYESEGCTNEQYQSHFALWCMMASPLLCGNDVRQMNDSTLQILLNKDLIAINQDPLGIQAERAIRADHYDVWVKPLSDGSKAIACLNRISGPVDVELNVKTVEGLSLDRVYDVIEGSLVAEASTGWVVKLAPGECKVFICKLEHHHHHH | not soluble
VVGNMTPDFLGSVATTLTWKDLSLNVGLDMRFGGLVASYCNLYGTQAGWTESSLQYRDPEHGGMTWTSQYADSKGIQYTDGMIPEGVFKEGTIATLVDGTKMDVSGLSYAQLVQEGKLEPTHAGSWYGNNYAWGAQTIDDIWVHKLSYIALRNITINYRLPNSISHKLGAKGLNLSFSARNLGYLYNSLPNNLNPESVRSNSASEFRIRGFEPYTASYIFTINANF | not soluble
MATPSLTDACVHCGFCLSDCPSYRVLGRETDSPRGRVYLMDSLQQGRIELSDTVVEHFDTCLGCLACTSACPSGVQYDQLIEEMRQRIAQEHRRPWPEAIWRKLLFAFLPLEHHHHHH | soluble
MLNRNRNVNKQNGHQKQNGAQKSELRGKNAPPYLERETCLGRNDIFVVEKMIAGGGFGQVYRARNTETQEEVAVKVERATTNDSQRMILESKVLDDMLGSKHFPNVYYIGPYHSYNFIVMQMLGKNIGDIRKMMPNKKISILSSVRIGIQIIEALSLLHSKGWLHRDLKPTNCCLGLDEKRKTVYLVDFGMSRKFRNDNGSLRESRTYCGFRGTTRYCSYRMHDRREQGPVDDLWCLYYSLGELIEGCLPWRDIESADEMAHVKKILKHEDIFHSMPSKFASFGRNLRRLRPANTPDYTKFQNILAYCVKFVDDNAEFEWDVMDY | not soluble
MKQGLQLRLSQQLAMTPQLQQAIRLLQLSTLELQQELQQALENNPLLEQTDLHDEIDTQQPQDNDPLDTADALEQKEMPEELPLDASWDEIYTAGTPSGPSGDYIDDELPVYQGETTQSLQDYLMWQVELTPFSDTDRAIATSIVDAVDDTGYLTVSLDEIRESMGDVEVDLDEVEAVLKRIQRFDPVGVAAKDLRDCLLIQLSQFDKSTPWLEEARLIICDHLDLLANHDFRTLMRVTRLKEEVLKEAVNLIQSLDPRPGQSIQTGEPEYVIPDVLVRKHNGRWTVELNSDSIPRLQINQHYAAMCNSARNDADSQFIRSNLQDAKWLIKSLESRNDTLLRVSRCIVEQQQAFFEQGEEYMKPMVLADIAQAVEMHESTISRVTTQKYLHSPRGIFELKYFFSSHVNTEGGGEASSTAIRALVKKLIAAENPAKPLSDSKLTSLLSEQGIMVARRTVAKYRESLSIPPSNQRKQLV | not soluble
MCTGIKIISKTNDIFYGRTMDFTFDFFGNEDPIAPKIPTLIAQFPKGTVLNSQLNPWTAKYAFMGLAMSGTDQPANDGKTVSLAITDGINEAGLSGDIQYLMESSTAPAESLADRGLTPHIAEEVLAYILSNFESVDEVKVAFEKIGLLDQKFQLDSLGEVHFTLHWTINDKNNNSIVLQPTDNGAFVIYDSIGVVTNSPEYNYHLTNARNYIGMRNYAIKEPYTLKSGATLDPIEGGTSYGLLGIPGDFTSPSRFIRALYYSDNLQEFDSSEGIMQLYRAFQTVMIPRGIGHLGQSNSLSDFTHYWSGYDVTNLTMYVQPESTTSFTKYTLDPALTEVTTFAVSNELLLTDLNQ | not soluble
MNKPVSSIPQSKEELELAINSIFDKLMADYRTIPVELTRERNVEGNIKGTQVSVCDTVAYLIGWGKLVLKWHRLKAQGLPVEFPESGFKWNQLGLLAEHFHEQYADWKYEALLKELESTVNELLSLISSLSNYDLYETTWYDKWTLGRMIQFNTSSPMKNMRSKVRRFKKNKGLLLEHHHHHH | soluble
SAQTTDTGWMTNPQHPPVQTRFVLTGQQDPQAKTLTGYLDVKLTGDWKTYWRSPGEGGVAPSIDWQNSQNLSKVDWQWPYPQKFELLGIETLGYKGDTLFPMTLHIDNMSKPVTIDAVLTLSSCTTICVLTDYQIQLTFLPSELQIDEQVMFSYAQAVSNVPQPSPFIDVTQASWDANQSKLQIKLTNTQGWNQPQVLVDGVDEATRDYSFKLEGIHQEGNTVTASYLVDTWLGDVELSDQSLFVTIKDANLLAEETTQAIAEAIVDPLPSTSVVS | soluble
MRKLISTIIVSTLLIGGCSTVHKEAKHSSQSIPEEVPASQYKGQGFQPVAEKSAIAHAKKYREEYEKLGEQFFKDNFSLNVKATNVVGSGDGVEVYVHCDDHDIVFNASIPFDKEAIHEEGSMRSNDNGDTMSNMVGTVLSGFEYKAQKEKYDNLTKFFKDNEEKYQYTGFTKEAIHKTQNVGYQNEYYYLAGNVTNINNYRKYYEPLIKKDSKNFKEGMKKANEATNFKAKIEVVSTLFSTKSDFTKNNSKKDLLFLSDDLYHYKEKPENTNITLQLSEPKINSTRAFYDANNPLEYGVHKHELEHHHHHH | soluble
MAHHHHHHMRRSLVFPPCHLQEARLLQSQQLFGWYHQTRHFTSLVDRLSTGVARKLSSLTETHMMPLSEKHITEPRRPYPKRPSMQENLAERLAEQRRWRSRVVPQQIILSKDKLYIEFVWSAATLSAAAAREMRQQQNNEEENGDGCTQKRKGISCGSFANDGIIKSEKLMSHRTRFLAEFLRAYSPSTDVIGADALIYGRRGITITDVIPVGNYALRIVFSDGHSGGIYPYEYLFHLGQCKYTKMREYIRRLREKRKSRDPPKRVPSKYVPRGRNAAEGTPKRDKTDDCGHRVAAK | not soluble
MAHHHHHHMKALKLFTNRICPFCQRVLITAKEKRVTLEEVEVPLGDDMPQWYKELNPRETVPMLQVDGKKCMIESDLISRYIDRISSPENALIGSSPYQRHRVEFFLSEIGDLVKAYFGLVRDPFNEEKRKSVDHNTAYIEGIIAEHQGDGPYFLDDTFSMAEVMVVPFLACFRPVLSYYCGYDIFHEAPRLKKMYVTSMQRTTVKETISKPEEYIIGFKSKVPKSHVTWSLAPGYVLFVNKYSPFSDRPRLACALKNIDLPMLEIDLKQLPSWFRWFNQRETVPTLLTPRGTYVHESQLIVHYLDDGFPEHGPALLPKDADGSYHVRFVESNVDYFMDAMYSLIKDPKNTNAKEEFDWAAGELEKLLAEHQFGEGPFFGGATMNAADVSLLPMLVHLKACTPDLTEGQDLLANYKLLAAAAEAGLTSEAGKKVFLSLSEYSSIYKTFLRPSS | soluble
MGNALVKKEPPPPVVLVPPLFDYPPLSARTRMLESSYNLLFGKLALRCLFEDYFEEANRFTGKFLLKPTDDPHVDLVASVSGAVDGRVEGDFVGNAEFRWQSDVDDPHTFVDLSVSTSNPVLLMRSSAYYPKYGIGAFAVYPLISKITGKSSEEYRIMGLRYGSTNLSVGATVTPFSANNELPKHAWLVSKMGSLTVGVQYEPLHGSKDLAKYTDPRNWSCAAGYGVGSQSPLTPSFNIGIELARSSQFIASFYQHVVVQRRVQNPFEENQVVGITNYIDFGFELQSRVDDSKTPPNAPDSLLQVAASWQANKNFLLKGKVGAHSSTLSLAFKSWWKPSFAFNISATTNHRTGNVQCGFGLRVDNLREASYQRADPNFVMLTPNKEHLAEGIVWKMGKRPMYQADVDAENFSELPKELRPSQKIL | soluble
MSQLVLDLKCLKDKIATNYDIHNNVYGGNGMEPNIIHPSKRFRIVVRLVDFLFCKSDEEFIKGFFCQMIVRNLHCLNSTNGAEEMRLYMSERLFSAHKDDLRLINGQVLDVRIGVWYGIHQSPPIFEIIDFKILSRNDVRDFCEFVKSPLGEKFLNISNS | not soluble
MGSDKIHHHHHHMFSVEQLQAFITTVETGSFSAAARRLNKVQSVVSQHVINLEVDCNILLFDRSGRYPALTEAGEKLLPHAQAVIDQHQRLKNSALSLTDNTPKEITIALDEGISFKLISGIISNLQNEFPNITLEFLSASSPDIIDMLKNEKALTGIVFSELTIPSYLDFECIGSIKFDLYVAKSHPLANQVCKNIDSLRLHRQLLIRSRNTQSSSFQLKLSPNVWYADNYFLLLELALQGNGWCLLPNHIANESVESGQLVKLPLEFEEMGWQANVDVVQHQRHSNLAVFKVLRLLLRNLL | not soluble
KCPRCGKSVYAAEKVMGGGKPWHKTCFRCAICGKSLESTNVTDKDGELYCKVCYAKNF | soluble
STEESMYTQIIKELPREGSSDVLVIKNEHVKKSDIWPSGGEMVVKDLTVKYMDDGNAVLENISFSISPGQRVGLLGRTGSGKSTLLSAFLRMLNIKGDIEIDGVSWNSVTLQEWRKAFGVITQKVFIFSGTFRQNLDPNGKWKDEEIWKVADEVGLKSVIEQFPGQLNFTLVDGGYVLSHGHKQLMCLARSVLSKAKIILLDQPSAHLDPITYQVIRRVLKQAFAGCTVILCEHRIEAMLDCQRFLVIEESNVWQYDSLQALLSEKSIFQQAISSSEKMRFFQGRHSSKHKPRTQITALKEETEEEVQETRL | not soluble
MHHHHHHSSGVDLGTENLYFQSMAQADIALIGLAVMGQNLILNMNDHGFVVCAFNRTVSKVDDFLANEAKGTKVVGAQSLKEMVSKLKKPRRIILLVKAGQAVDDFIEKLVPLLDTGDIIIDGGNSEYRDTTRRCRDLKAKGILFVGSGVSGGEEGARYGPSLMPGGNKEAWPHIKTIFQGIAAKVGTGEPCCDWVGDEGAGHFVKMVHNGIEYGDMQLICEAYHLMKDVLGMAQDEMAQAFEDWNKTELDSFLIEITANILKFQDTDGKHLLPKIRDSAGQKGTGKWTAISALEYGVPVTLIGEAVFARCLSSLKDERIQASKKLKGPQKFQFDGDKKSFLEDIRKALYASKIISYAQGFMLLRQAATEFGWTLNYGGIALMWRGGCIIRSVFLGKIKDAFDRNPELQNLLLDDFFKSAVENCQDSWRRAVSTGVQAGIPMPCFTTALSFYDGYRHEMLPASLIQAQRDYFGAHTYELLAKPGQFIHTNWTGHGGTVSSSSYNA | soluble
MQTSIDPVFAGWDGSVAQARQLQQQLAQRVALRDEVSAAPALLAGFDVGFEDDGQTTRAAAVLLDAQTLLPLETHVARVPTSMPYVPGLLSFRELPALLRALALLARTPDLVFIDGQGIAHPRRFGIAAHFGVVTGLPSIGVAKQRLAGTFIEPGGERGDHSPILLAGAQIGWALRSKPRCNPLIVSPGHRVSMQGALDWTLRTLRAYRLPEPTRLADRLASRRGEIELQTQPTLLLEHHHHHH | not soluble
MAHHHHHHMGTMGASNDVTDVDDENLLSEELQSSSTGSWSSMGDLQTTESAESDAPSEESDPDERVRRATASFLQWKNKEYVPLSLDEKRAIKEYRKMVAQEEGSYTSTRAQRQRDRAPKLFISREDDWVDLGSPAEGDGLARRRSRKIRFVAAVIASKEVDVHNDGLVVLTDAGEEVPELPRSASILRMSCVKNLTEEAPVFVDDLNSCMMEDEGRSCESAVRWEFPR | soluble
